Patent publication US20090170763A1 (KENJI KANGAWA, published 2009)
Where two headings read alike, the source gives them in different places. Numbered stars: 1 amine (or outer) side, 2 acyl side, 3 side chain; on linkers, the order of the positions; unused ones are H or OH. Square brackets hold non-standard residues; d marks the D form. Ends that are not written are not given here. * marks the point of attachment. Ethylenediamine = C(CN[*:2])N[*:1]; Palmitoyl = CCCCCCCCCCCCCCCC(=O)*; Lauroyl = CCCCCCCCCCCC(=O)*; Decanoyl = CCCCCCCCCC(=O)*; Octanoyl = CCCCCCCC(=O)*; Hexanoyl = CCCCCC(=O)*; NHBn = c1ccc(CN*)cc1; Butyryl = CCCC(=O)*; Ava = NCCCCC(=O)O; Octyl = CCCCCCCC*

Legend:
[1] = target: rat GHS-R (GHS receptor) expressed on CHO-GHSR62 cells (rat) (UniProt O08725); assay: cell-based or functional assay
[2] = target: amino-terminal antibody (anti-[C-Cys]-rat ghrelin [1-11] antigen); assay: radioimmunoassay: inhibition of binding of radioisotope-labeled rat ghrelin to the amino-terminal antibody
[3] = target: T1, rat GHS-R (GHS receptor) expressed on CHO-GHSR62 cells (rat, UniProt O08725 1-364); assay: cell-based or functional assay
[4] = target: T1, rat GHS-R (GHS receptor) expressed on …; assay: cell-based or functional assay; remark: listed apart in the source
[5] = target: T1, rat GHS-R (GHS receptor) expressed on …; assay: cell-based or functional assay; remark: listed apart in the source
[6] = target: T1, rat GHS-R (GHS receptor) expressed on …; assay: cell-based or functional assay; remark: listed apart in the source
[7] = target: T1, rat GHS-R (GHS receptor) expressed on …; assay: cell-based or functional assay; remark: listed apart in the source
[8] = target: T1, rat GHS-R (GHS receptor) expressed on …; assay: cell-based or functional assay; remark: listed apart in the source
[9] = target: T1, rat GHS-R (GHS receptor) expressed on …; assay: cell-based or functional assay; remark: listed apart in the source
[10] = target: T1, rat GHS-R (GHS receptor) expressed on …; assay: cell-based or functional assay; remark: listed apart in the source
[11] = target: T1, rat GHS-R (GHS receptor) expressed on …; assay: cell-based or functional assay; remark: listed apart in the source

T1 sequence (O08725 whole entry): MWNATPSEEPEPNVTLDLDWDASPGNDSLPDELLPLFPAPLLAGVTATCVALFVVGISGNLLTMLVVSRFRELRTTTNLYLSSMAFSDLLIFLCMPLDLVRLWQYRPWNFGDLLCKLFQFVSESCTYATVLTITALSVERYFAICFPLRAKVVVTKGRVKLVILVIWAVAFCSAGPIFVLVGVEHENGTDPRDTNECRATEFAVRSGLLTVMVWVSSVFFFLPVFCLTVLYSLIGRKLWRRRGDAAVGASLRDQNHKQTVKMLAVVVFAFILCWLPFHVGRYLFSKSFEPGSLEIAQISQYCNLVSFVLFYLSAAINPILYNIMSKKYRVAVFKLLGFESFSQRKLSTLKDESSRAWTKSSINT
Sequence of rat GHS-R (GHS receptor) expressed on CHO-GHSR62 cells (rat) (O08725 whole entry): as above

## [D-Lys 3]-GHRP-6 (peptide)
[1]
  inhibition of the Ca-releasing activity of ghrelin: 100 µM

## [N-Aminopentanoyl,Ser^3(Octyl),Lys^5]-Ghrelin (3-5)-amide (peptide)
[1]
  Activity EC50: 12 nM

## [Aib^1,His^2,^DNal^3,^DPhe^4,Lys^5]-Ghrelin (1-5)-amide (peptide)
[1]
  Activity EC50: 2.5 nM
  EC50 value: 2.5 nM

## human ghrelin (peptide)
[2]
  cross-reactivity: 100%

## [N-Aminopentanoyl,^DSer^3(Octyl),^DPhe^4,Lys^5]-Ghrelin (3-5)-amide (peptide)
[1]
  Activity EC50: 1600 nM

## GSS(Palmitoyl)FLSPEHQKAQQRKESKKPPAKLQPR [[Ser^3(Palmitoyl)]-rGhrelin]
[3]
  Ca-releasing activity EC50: 6.5 nM
[4]
  Ca-releasing activity (EC50, nM): 3.1 nM

## GS[dS](Octyl)FLSP-NH2 [[^DSer^3(Octyl)]-Ghrelin (1-7)-amide]
[5]
  Ca-releasing activity EC50: > 10000 nM

## GSS(Ac)FLSPEHQKAQQRKESKKPPAKLQPR [[Ser^3(Acetyl)]-rGhrelin]
[3]
  Ca-releasing activity EC50: 780 nM
[4]
  Ca-releasing activity (EC50, nM): 780 nM

## [Ava]S(Octyl)FL-Ethylenediamine [[N-Aminopentanoyl,Ser^3(Octyl)]-Ghrelin (3-5)-aminoethylamide]
[6]
  Activity EC50: 3.5 nM

B1: [Leu^2]-Ghrelin (1-7)-amide (peptide)
peptide: GLS(Octanoyl)FLSP-NH2
modifications: N-terminus assumed
SMILES: CCCCCCCC(=O)OC[C@H](NC(=O)[C@H](CC(C)C)NC(=O)CN)C(=O)N[C@@H](Cc1ccccc1)C(=O)N[C@@H](CC(C)C)C(=O)N[C@@H](CO)C(=O)N1CCC[C@H]1C(N)=O
[7]
  Ca-releasing activity EC50: 42 nM

## GSLFLSPEHQRVQQRKESKKPPAKLQPR [[Leu^3]-hGhrelin]
[8]
  Activity EC50: 4400 nM

## GSS(Decanoyl)FLSPEHQKAQQRKESKKPPAKLQPR [[Ser^3(Decanoyl)]-rGhrelin]
[2]
  cross-reactivity: 20%
[3]
  Ca-releasing activity EC50: 1.7 nM
[4]
  Ca-releasing activity (EC50, nM): 2.6 nM

## GSKFLSPEHQRVQQRKESKKPPAKLQPR [[Lys^3]-hGhrelin]
[8]
  Activity EC50: 120 nM

## GSS(Butyryl)FLSPEHQKAQQRKESKKPPAKLQPR [[Ser^3(Butyryl)]-rGhrelin]
[3]
  Ca-releasing activity EC50: 280 nM
[4]
  Ca-releasing activity (EC50, nM): 280 nM

B2: [N-Octanoyl, Ser^3]-Ghrelin (1-9)-amide (peptide)
peptide: Octanoyl-GSSFLSPEH-NH2
SMILES: CCCCCCCC(=O)NCC(=O)N[C@@H](CO)C(=O)N[C@@H](CO)C(=O)N[C@@H](Cc1ccccc1)C(=O)N[C@@H](CC(C)C)C(=O)N[C@@H](CO)C(=O)N1CCC[C@H]1C(=O)N[C@@H](CCC(=O)O)C(=O)N[C@@H](Cc1c[nH]cn1)C(N)=O
[9]
  Ca-releasing activity EC50: > 10000 nM

## GSS(Lauroyl)FLSPEHQKAQQRKESKKPPAKLQPR [[Ser^3(Lauroyl)]-rGhrelin]
[3]
  Ca-releasing activity EC50: 2.4 nM

## GSS(Octanoyl)F [Ghrelin (1-4)]
[10]
  Ca-releasing activity EC50: 480 nM
[4]
  Ca-releasing activity (EC50, nM): 480 nM

B3: [Ser^3(Octyl)]-Ghrelin (1-7)-amide (peptide)
peptide: GSS(Octyl)FLSP-NH2
modifications: N-terminus assumed
SMILES: CCCCCCCCOC[C@H](NC(=O)[C@H](CO)NC(=O)CN)C(=O)N[C@@H](Cc1ccccc1)C(=O)N[C@@H](CC(C)C)C(=O)N[C@@H](CO)C(=O)N1CCC[C@H]1C(N)=O
[5]
  Ca-releasing activity EC50: 5.8 nM

## GSS(Octanoyl)FLSPEHQKAQQR [rGhrelin (1-15)]
[11]
  Ca-releasing activity EC50: 8.6 nM
[4]
  Ca-releasing activity (EC50, nM): 8.6 nM

B4: [N-Aminopentanoyl]-Ghrelin (3-7)-amide (peptide)
peptide: [Ava]S(Octanoyl)FLSP-NH2
modifications: N-terminus assumed
SMILES: CCCCCCCC(=O)OC[C@H](NC(=O)CCCCN)C(=O)N[C@@H](Cc1ccccc1)C(=O)N[C@@H](CC(C)C)C(=O)N[C@@H](CO)C(=O)N1CCC[C@H]1C(N)=O
[7]
  Ca-releasing activity EC50: 3.4 nM

## GSS(Hexanoyl)FLSPEHQKAQQRKESKKPPAKLQPR [[Ser^3(Hexanoyl)]-rGhrelin]
[2]
  cross-reactivity: 0.3%
[3]
  Ca-releasing activity EC50: 16 nM
[4]
  Ca-releasing activity (EC50, nM): 16 nM

## GSS(Octyl)[dF]LSP-NH2 [[Ser^3(Octyl),^DPhe^4]-Ghrelin (1-7)-amide]
[5]
  Ca-releasing activity EC50: 2200 nM

## [Ava]S(Octyl)FL-NHBn [[N-Aminopentanoyl,Ser^3(Octyl)]-Ghrelin (3-5)-benzylamide]
[6]
  Activity EC50: 98 nM

B5: Ghrelin (1-9)-amide (peptide)
peptide: GSS(Octanoyl)FLSPEH-NH2
modifications: N-terminus assumed
SMILES: CCCCCCCC(=O)OC[C@H](NC(=O)[C@H](CO)NC(=O)CN)C(=O)N[C@@H](Cc1ccccc1)C(=O)N[C@@H](CC(C)C)C(=O)N[C@@H](CO)C(=O)N1CCC[C@H]1C(=O)N[C@@H](CCC(=O)O)C(=O)N[C@@H](Cc1c[nH]cn1)C(N)=O
[9]
  Ca-releasing activity EC50: 5.4 nM

## [Ava]S(Octyl)FL-NHEt [[N-Aminopentanoyl,Ser^3(Octyl)]-Ghrelin (3-5)-ethylamide]
[6]
  Activity EC50: 22 nM

## GSSFLSPEHQKAQQRKESKKPPAKLQPR [[Ser^3]-rat Ghrelin]
[3]
  Ca-releasing activity EC50: 3500 nM

## GS(Octanoyl)S(Octanoyl)FLSPEH-NH2 [[Ser^2(Octanoyl)]-Ghrelin (1-9)-amide]
[9]
  Ca-releasing activity EC50: 1400 nM

## GSS(Octanoyl)FLSPEHQRVQQR [hGhrelin (1-15)]
[11]
  Ca-releasing activity EC50: 7 nM
[4]
  Ca-releasing activity (EC50, nM): 7 nM

## GS[dS](Octyl)[dF]LSP-NH2 [[^DSer^3(Octyl),^DPhe^4]-Ghrelin (1-7)-amide]
[5]
  Ca-releasing activity EC50: > 10000 nM

## GSFFLSPEHQRVQQRKESKKPPAKLQPR [[Phe^3]-hGhrelin]
[8]
  Activity EC50: 2000 nM

## [Ava]S(Octyl)FL-NHMe [[N-Aminopentanoyl,Ser^3(Octyl)]-Ghrelin (3-5)-methylamide]
[6]
  Activity EC50: 12 nM

## GSVFLSPEHQRVQQRKESKKPPAKLQPR [[Val^3]-hGhrelin]
[8]
  Activity EC50: 1600 nM

B6: [N-Aminopentanoyl,Ser^3(Octyl)]-Ghrelin (3-5)-amide (peptide)
peptide: [Ava]S(Octyl)FL-NH2
modifications: N-terminus assumed
SMILES: CCCCCCCCOC[C@H](NC(=O)CCCCN)C(=O)N[C@@H](Cc1ccccc1)C(=O)N[C@@H](CC(C)C)C(N)=O
[6]
  Activity EC50: 11 nM

## GSS(Octanoyl)FLSPEHQKAQRKESKKPPAKLQPR [rat ghrelin-27]
[11]
  Ca-releasing activity EC50: 1.5 nM
[4]
  Ca-releasing activity (EC50, nM): 2.8 nM

B7: [Ser^2(Octanoyl), Ser^3]-Ghrelin (1-9)-amide (peptide)
peptide: GS(Octanoyl)SFLSPEH-NH2
modifications: N-terminus assumed
SMILES: CCCCCCCC(=O)OC[C@H](NC(=O)CN)C(=O)N[C@@H](CO)C(=O)N[C@@H](Cc1ccccc1)C(=O)N[C@@H](CC(C)C)C(=O)N[C@@H](CO)C(=O)N1CCC[C@H]1C(=O)N[C@@H](CCC(=O)O)C(=O)N[C@@H](Cc1c[nH]cn1)C(N)=O
[9]
  Ca-releasing activity EC50: 1100 nM

## KESKKPPAKLQPR (not fully specified) [Ghrelin (16-28)]
[11]
  Ca-releasing activity EC50: > 10000 nM
[4]
  Ca-releasing activity (EC50, nM): > 10000 nM

## GSIFLSPEHQRVQQRKESKKPPAKLQPR [[Ile^3]-hGhrelin]
[8]
  Activity EC50: > 10000 nM

## GSWFLSPEHQRVQQRKESKKPPAKLQPR [[Trp^3]-hGhrelin]
[8]
  Activity EC50: 31 nM

## Ac-GSS(Octanoyl)FLSPEHQ [[N-Acetyl]-Ghrelin (1-10)]
[7]
  Ca-releasing activity EC50: > 10000 nM
